Measured values: PMC9570017, “Unorthodox PCNA Binding by Chromatin Assembly Factor 1” (International Journal of Molecular Sciences, 2022)
Blank lines part the entries; values can stand above or below the molecule they belong to. No end group written: not given here.

What was measured:
human PCNA = target: T1, human PCNA (Homo sapiens, UniProt P12004); assay: Isothermal titration calorimetry (ITC), PIP peptide titrated into wild-type PCNA; type: binding
T1 construct: His6 (C); made in house; host or cells: E. coli Codon Plus BL21(DE3) pLysS
T1 sequence (P12004 whole entry): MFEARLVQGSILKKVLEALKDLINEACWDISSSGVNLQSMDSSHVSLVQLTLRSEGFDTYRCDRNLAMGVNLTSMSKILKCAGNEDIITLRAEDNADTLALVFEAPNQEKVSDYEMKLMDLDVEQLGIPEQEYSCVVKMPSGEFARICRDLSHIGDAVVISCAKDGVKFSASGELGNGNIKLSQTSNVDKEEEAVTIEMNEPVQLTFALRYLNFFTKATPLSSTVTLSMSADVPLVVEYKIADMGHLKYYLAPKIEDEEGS
From the text: The wild-type and R426D peptides were expressed as GST fusions in E. coli, purified to homogeneity (see Materials and Methods) and used in isothermal titration calorimetry (ITC) assays with human PCNA purified from E. coli.
Recombinant PCNA, PCNA-Y250I, and the PIP peptides (wild-type, R426D) were expressed and purified as described in the Supplementary Materials section—“Expression and purification of recombinant proteins”. The proteins were dialyzed against three 4-litre changes of ITC buffer containing 10 mM sodium phosphate, pH 7.0, and 10 mM NaCl at 4 °C overnight. The concentrations of PCNA and PIP peptides were determined by measuring tyrosine absorption at A280nm. ITC titrations of peptides into PCNA were performed at 23 °C in the ITC buffer (10 mM sodium phosphate, pH 7.0, 10 mM NaCl) using a MicroCal VP-ITC system. The concentrations of injected wild-type and mutant PIP in the syringe varied from 200 to 500 μM, whereas PCNA in the ITC sample cell varied depending on the experiment from 20 to 50 μM PCNA monomer. The protein and peptide samples were degassed before the ITC run. Data analysis was performed using the MicroCal Origin 7.0 software (OriginLab Corporation, Northampton, MA, USA) and all experiments fit the single binding site model.
Supplementary Materials-Expression and purification of recombinant proteins
S1. Expression and purification of GST-PIP fusion proteins in Escherichia coli Wild-type p150 PIP and R426D peptides were constructed as GST-fusion proteins with a tyrosine at the C-terminus of the peptide. The C-terminal tyrosine was added to aid in peptide detection during the purification by measuring the absorbance at 280 nm. The DNA fragments encoding the GST fusion proteins were inserted into a pGEX-TEV vector, which is essentially a modified pGEX-2T vector where the thrombin cleavage site was replaced with a TEV cleavage site. The pGEX-TEV plasmid was digested with BamHI and EcoRI and ligated to DNA fragments encoding either the p150 PIP wild-type and R426D. The plasmids pGEX-TEV-PIP wild type and pGEX-TEV-PIP R426D were con-firmed by DNA sequencing and then expressed in Escherichia coli host strain TOPP2 (Strat-agene) with 100 µg/ml ampicillin to saturation at 37°C. The next day, the saturated cells were diluted to 0.05 OD measured at A600 nm and the cells were grown at 37°C until the cells reach the mid-exponential phase of 0.6-0.8 at OD A600 nm. The cells were then in-duced with 1 mM isopropyl-D-thiogalactopyranoside (IPTG) for 4 h. Eight litres of cell culture were grown each for the wild-type and R426D mutant. The cells were then har-vested by centrifugation in an Avanti J-26XP high-performance centrifuge from Beckman Coulter with a fixed angle rotor (JLA-8.1000) at 9000 x g for 30 min at 4°C. The pellet from 1 litre cells equivalent was lysed in 10 ml of lysis buffer containing 20 mM Tris pH 7.5, 1 M NaCl, 0.2 mM EDTA, 1 mM DTT, 50 µg/ml lysozyme, 1 mM AEBSF and one tablet of cOmplete™ Mini EDTA-free Protease Inhibitor Cocktail Tablets (Roche). The cell pellet was sonicated in the lysis buffer on ice, at power output level 4 with 10 seconds pulse on and 30 seconds off at 6 watts using a Misonix 3000 Ultrasonic cell disruptor and wider probe. The lysate was clarified by centrifugation for 30 min in an Avanti J-26XP with a fixed angle rotor 25.50 at 30966 x g at 4°C. The clarified supernatant was incubated on a nutator for 6 h at 4°C with 10 ml of glutathione-Sepharose (GSH) resin (Amersham) pre-washed and equilibrated with lysis buffer. After incubation the GSH resin was pelleted, the unbound supernatant was removed, and the resin was washed thrice with lysis buffer and twice with Tobacco Etch Virus (TEV) protease buffer (20 mM sodium phosphate pH 6.5, 50 mM NaCl, 2 mM DTT). The peptide was cleaved from the GSH resin by incubating in the presence of TEV protease overnight at 4°C. The next day, the supernatant was har-vested by centrifugation, and the GSH resin was washed twice with 20 mM sodium phos- […]

[1] = target: T2, proliferating cell nuclear antigen (PCNA), wild type (human, UniProt P12004 1-261); assay: ITC; peptide (200 to 500 uM in the syringe) titrated into PCNA (20 to 50 uM monomer in the cell); 10 mM sodium phosphate pH 7.0, 10 mM NaCl, 23 °C; single binding site model; apparent Kd; settings: both partners purified
T2 construct: human PCNA purified from E. coli; Homo-trimeric ring (88.7 kDa as printed); Human is stated for the ITC; In the functional rows PCNA is the endogenous protein of the human HEK-293 S100 extract; also called human PCNA; source: E. coli, purified
T2 sequence (P12004 whole entry): as above

mouse NIH3T3 cells = assay: Localization of GFP-p150 relative to PCNA replication foci in mid S-phase NIH3T3 cells; type: cell-based; settings: for localization to heterochromatin foci: DAPI staining
From the text: Cells in early S-phase show numerous small PCNA foci distributed throughout the nucleus. These foci can be resolved from each other using super-resolution microscopy but are difficult to resolve from each other by confocal microscopy. This makes protein localization to early S-phase PCNA foci difficult to assess using conventional tools for microscopy. Mid S-phase is the stage when perinuclear and peri-nucleolar chromatin are replicated. The corresponding PCNA foci are relatively large and distant from each other, making co-localization of a protein of interest with PCNA straightforward. Late S-phase is the stage when pericentric heterochromatin replicates. […] Because of these constraints, we focused our attention on cells with patterns of PCNA foci characteristic of mid S-phase. As reported in previous studies, we observed a distinct immunostaining pattern for PCNA with the monoclonal antibody PC10. During mid S-phase, staining of PCNA with PC10 occurred within foci located around the periphery of the nuclear envelope (Figure 4B, top panel, PC10). […] Asynchronously proliferating mouse NIH 3T3 cells were transduced with lentiviral vectors, and expression of wild-type and mutant forms of GFP-p150 was induced with doxycycline. Cells were fixed and permeabilized for PCNA detection with the PC10 monoclonal antibody. Mid-S phase cells were identified based upon their stereotypical pattern of PCNA staining at the nuclear periphery. […] The Pearson’s correlation coefficient of GFP WT-mp150 was 0.6, and 0.25 for the mutant GFP-p150 R426D. This is consistent with previous observations, that when CAF-1 is unable to bind to PCNA, it prematurely associates with pericentric heterochromatin in early and mid S-phase.
To study the localization of GFP CAF-1 p150 wild-type and mutants relative to that of PCNA, cDNAs encoding mouse p150 were cloned into a doxycycline-inducible lentiviral vector pCW-Cas9 plasmid encoding a TetON (minimal CMV) promoter (Addgene plasmid 50661). The Cas9 insert was replaced by wild-type or mutant mouse CAF-1 p150 using the restriction enzymes NheI and BamHI. GFP-p150 wild-type and mutant fusion proteins were excised from the EGFP-C1 vector (Clonetech) using Nhe1 and BamH1 restriction enzymes as previously reported. NheI and BamHI digested fragments were run on 0.8% agarose gel and the corresponding DNA bands: vector—pCW-Cas9 (7036 bp) and inserts—wild-type mp150, R426D (3983 bp) were gel purified using Qiagen DNA extraction spin prep columns. Purified DNAs were ligated using the Takara DNA ligase enzyme, following the manufacturer’s recommended protocol. Positive clones were selected on Luria-Bertani medium containing 100 µg/mL ampicillin, and after DNA isolation, the clones were verified by DNA sequencing. […]

Kd (result in words) (human PCNA; ITC at 296 K, 10 mM Na-phosphate (pH 7.0), 10 mM NaCl, R426D): No binding
heat exchange / binding to wild-type PCNA (human PCNA; ITC, 23 °C, 10 mM sodium phosphate, pH 7.0, 10 mM NaCl): did not observe any heat exchange
Molecule: KAEITDFFQKPKT [CAF-1 PIP R426D, R426D p150 PIP expressed as GST fusion with C-terminal tyrosine, TEV-cleaved and purified, used for ITC]

Kd [1]: 24 µM
dH [1]: -1.87 kcal/mol
stoichiometry N [1]: 0.83
B1: CAF-1 PIP wild-type peptide (expressed as a GST fusion) (peptide)
chain: IKAEKAEITRFFQKPKTPQA
modifications: also: expressed as a GST fusion

B2: GFP-p150 R426D: GFP fusion of mouse CAF-1 p150 with R426D mutation (protein, UniProt Q9QWF0 1-911, looked up, variant R426D)
Chromatin assembly factor 1 …: MLEEPEAATRTAAAVDCKDRPGFPVKRLIQARLPFKRLNLVPKEKVEEDTSPKAAVESKVPDLQLSLGTFESQCHTGSHVGLSTKLVGGQGPIDSFLRATIKPVPSVVIIDLTENCSDIPDSPEGHSELSPDTAGVVTTVEGAAKQQEHSAAELCLLETPSDITCHMEEEPGSPGDPKRTGDCQAGSLQSCPELTPGSRTCPTKELSSWSKAGDLLFIEKVPVVVLEDILATKPSIASLPMMSLDRSVTSESEILESCPEDDSILSHSSTNSSSPTSSPEGPSTPPEHRGGRSSPSTPACRVAKNFVKGSTEKGRSKLHRDREQQREEKEKLREEIRRAKEEARKKKEEEKELKEKERREKREKDEKEKAEKQRLKEEKRKERQEALEAKLEEKRKKEEEKRLREEEKRLREEEKRIKAEKAEITDFFQKPKTPQAPKTLAGSCGKFAPFEIKEHMVLAPRCRAALDQDLCDQLDQLLQQQSVASTFLSDLKSRLPLRSGPTRVCGHDTDIMNRDVVIVESSKVDGVSERKKFGRMKLLQFSENHRPAYWGTWNKKTAIIRPRNPWAQDKDLLDYEVDSDDEWEEEEPGESLSHSEGDEDDDVGEDEDEDDGFFVPHGYLSEDEGVTEECADPENHKVHQKLKAKEWDELLAKGKRFRVLQPVHVGCVWASEAANCTSSDLKLLQQFTACLLDVASPDEPEPGASRREKRDQHILAQLLPLLHGNVNGSKVIIHEFQEQCRRGLLTLPSPTPHLQMPNLEDAVAVPSKARLKRLISENSAYEKRPNFRMCWYVHPEVLKSFGQECLPVPCQWTYITTMPSAPREDSGSASTEGPGQSTPMLLKRKPAATMCITQFMKKRRYDGQVGSGDMDGFQADTEEDEEDDTDCMIIDVPDVGSDVSEAPIPAPTLCK
modifications: GFP fusion
notes: GFP fusion of mouse CAF-1 p150 with R426D mutation
Pearson’s correlation coefficient (mouse NIH3T3 cells; GFP-p150 vs PCNA (PC10), mid S-phase NIH3T3 cells, doxycycline 2 µg/mL): 0.25
localization to heterochromatin foci (mouse NIH3T3 cells; mid S-phase): anomalously found largely within the nuclear interior and the large heterochromatic foci
localization to heterochromatin foci (mouse NIH3T3 cells; mid S-phase, listed as CAF-1 p150 R426D): more localized to the pericentric heterochromatin
localization to PCNA foci at nuclear periphery (mouse NIH3T3 cells; mid S-phase, confocal microscopy, PC10 staining): did not co-localize with PCNA foci at the nuclear periphery
